B1: CDC25A (parent)
chain: QLIDPDENKENEAFEFKKPVRPVS
B2: SPDEF (parent)
chain: YPEDSSWAAKAPGASSREEPPEEP

Variants of: B1
Assay: protein stability index of a GFP-peptide fusion (GPS, HEK-293T) (PSI 1-6); higher = more stable
Settings: c terminus: a fixed tail appended
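Also: lentivirally expressed fusions sorted by FACS into six bins by GFP to DsRed ratio, PSI derived from sequencing read proportions per bin multiplied by bin number.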

In order of rising protein stability index:
1. YLIDPDENKENEAFEFKKPVRPVS  2.32
2. WLIDPDENKENEAFEFKKPVRPVS  2.44
3. QIIDPDENKENEAFEFKKPVRPVS  2.73
4. QLIDYDENKENEAFEFKKPVRPVS  2.85
5. QLIDFDENKENEAFEFKKPVRPVS  2.88
6. DLIDPDENKENEAFEFKKPVRPVS  2.88
7. LLIDPDENKENEAFEFKKPVRPVS  2.93
8. QLIDIDENKENEAFEFKKPVRPVS  3.07
9. QLLDPDENKENEAFEFKKPVRPVS  3.15
10. QLINPDENKENEAFEFKKPVRPVS  3.2
11. QLIDSDENKENEAFEFKKPVRPVS  3.25
12. QVIDPDENKENEAFEFKKPVRPVS  3.29
13. QLIRPDENKENEAFEFKKPVRPVS  3.3
14. QFIDPDENKENEAFEFKKPVRPVS  3.35
15. QLICPDENKENEAFEFKKPVRPVS  3.37
16. ILIDPDENKENEAFEFKKPVRPVS  3.39
17. QWIDPDENKENEAFEFKKPVRPVS  3.43
18. RLIDPDENKENEAFEFKKPVRPVS  3.44
19. QLIVPDENKENEAFEFKKPVRPVS  3.44
20. QLIWPDENKENEAFEFKKPVRPVS  3.45
21. QLIDWDENKENEAFEFKKPVRPVS  3.51
22. QLIGPDENKENEAFEFKKPVRPVS  3.56
23. TLIDPDENKENEAFEFKKPVRPVS  3.58
24. QLISPDENKENEAFEFKKPVRPVS  3.58
25. QLNDPDENKENEAFEFKKPVRPVS  3.6
26. VLIDPDENKENEAFEFKKPVRPVS  3.6
27. QLIDTDENKENEAFEFKKPVRPVS  3.61
28. QLIDHDENKENEAFEFKKPVRPVS  3.61
29. QLIDPGENKENEAFEFKKPVRPVS  3.64
30. QLITPDENKENEAFEFKKPVRPVS  3.65
31. QLIDRDENKENEAFEFKKPVRPVS  3.66
32. QLIAPDENKENEAFEFKKPVRPVS  3.67
33. QMIDPDENKENEAFEFKKPVRPVS  3.72
34. QLIDVDENKENEAFEFKKPVRPVS  3.74
35. QLYDPDENKENEAFEFKKPVRPVS  3.74
36. QLIDPAENKENEAFEFKKPVRPVS  3.75
37. QLMDPDENKENEAFEFKKPVRPVS  3.75
38. CLIDPDENKENEAFEFKKPVRPVS  3.81
39. NLIDPDENKENEAFEFKKPVRPVS  3.83
40. QLIIPDENKENEAFEFKKPVRPVS  3.83
41. QLIYPDENKENEAFEFKKPVRPVS  3.84
42. QLKDPDENKENEAFEFKKPVRPVS  3.86
43. QLIDQDENKENEAFEFKKPVRPVS  3.87
44. QLIKPDENKENEAFEFKKPVRPVS  3.87
45. QLIDPEENKENEAFEFKKPVRPVS  3.88
46. QLIDPFENKENEAFEFKKPVRPVS  3.88
47. QLIDMDENKENEAFEFKKPVRPVS  3.88
48. QLIDGDENKENEAFEFKKPVRPVS  3.9
49. QLFDPDENKENEAFEFKKPVRPVS  3.91
50. QLILPDENKENEAFEFKKPVRPVS  3.91
51. QLIDDDENKENEAFEFKKPVRPVS  3.92
52. QLCDPDENKENEAFEFKKPVRPVS  3.92
53. QLIDPHENKENEAFEFKKPVRPVS  3.94
54. QLIMPDENKENEAFEFKKPVRPVS  3.94
55. QLIDKDENKENEAFEFKKPVRPVS  3.95
56. QLQDPDENKENEAFEFKKPVRPVS  3.95
57. MLIDPDENKENEAFEFKKPVRPVS  3.97
58. QLIDADENKENEAFEFKKPVRPVS  3.99
59. QLIEPDENKENEAFEFKKPVRPVS  3.99
60. QLVDPDENKENEAFEFKKPVRPVS  4.05
61. FLIDPDENKENEAFEFKKPVRPVS  4.05
62. QLIDNDENKENEAFEFKKPVRPVS  4.06
63. PLIDPDENKENEAFEFKKPVRPVS  4.06
64. QLIFPDENKENEAFEFKKPVRPVS  4.09
65. QLIDCDENKENEAFEFKKPVRPVS  4.12
66. QLTDPDENKENEAFEFKKPVRPVS  4.12
67. QSIDPDENKENEAFEFKKPVRPVS  4.16
68. QYIDPDENKENEAFEFKKPVRPVS  4.17
69. QLIDPIENKENEAFEFKKPVRPVS  4.22
70. QLADPDENKENEAFEFKKPVRPVS  4.23
71. QLIHPDENKENEAFEFKKPVRPVS  4.23
72. QKIDPDENKENEAFEFKKPVRPVS  4.29
73. QLPDPDENKENEAFEFKKPVRPVS  4.3
74. QTIDPDENKENEAFEFKKPVRPVS  4.31
75. ALIDPDENKENEAFEFKKPVRPVS  4.36
76. QQIDPDENKENEAFEFKKPVRPVS  4.41
77. SLIDPDENKENEAFEFKKPVRPVS  4.43
78. QDIDPDENKENEAFEFKKPVRPVS  4.51
79. QLIDPCENKENEAFEFKKPVRPVS  4.51
80. QHIDPDENKENEAFEFKKPVRPVS  4.54
81. ELIDPDENKENEAFEFKKPVRPVS  4.56
82. QNIDPDENKENEAFEFKKPVRPVS  4.58
83. QLGDPDENKENEAFEFKKPVRPVS  4.58
84. QLHDPDENKENEAFEFKKPVRPVS  4.59
85. QCIDPDENKENEAFEFKKPVRPVS  4.64
86. QLDDPDENKENEAFEFKKPVRPVS  4.64
87. QAIDPDENKENEAFEFKKPVRPVS  4.69
88. HLIDPDENKENEAFEFKKPVRPVS  4.72
89. QLEDPDENKENEAFEFKKPVRPVS  4.74
90. QLRDPDENKENEAFEFKKPVRPVS  4.75
91. QEIDPDENKENEAFEFKKPVRPVS  5.02
92. QPIDPDENKENEAFEFKKPVRPVS  5.03

Variants of: B2
Assay: as above
Settings: c terminus: a fixed tail appended

In order of falling protein stability index:
1. YPEDSSWAAKAPGASSREEPPEED  4.17
2. YPEDSSWAAKAPGASSREEPPEEY  4.17

From the supplement of paper PMC10567573
